Laboratory results: article PMC9285634

Target: Pyruvate kinase M2 (PKM2), endogenous (human (endogenous in HeLa and HCT116)) (UniProt P14618)
Assay: cross-linking; cell or tumor tissue lysate in PBS with 0.1% Triton X-100; 4 ug protein crosslinked with 0.025% glutaraldehyde for 2 min at 37 C, stopped with Tris-HCl pH 8.0 50 mM; SDS-PAGE and WB with anti-PKM2; cells with HITT overexpression or KD, HITT fragments, miR-106, FBP; HCT116 xenografts

Sequence of Pyruvate kinase M2 (PKM2), endogenous, P14618 1-531 (enzyme; other documents disagree on this pair) (P14618 whole entry): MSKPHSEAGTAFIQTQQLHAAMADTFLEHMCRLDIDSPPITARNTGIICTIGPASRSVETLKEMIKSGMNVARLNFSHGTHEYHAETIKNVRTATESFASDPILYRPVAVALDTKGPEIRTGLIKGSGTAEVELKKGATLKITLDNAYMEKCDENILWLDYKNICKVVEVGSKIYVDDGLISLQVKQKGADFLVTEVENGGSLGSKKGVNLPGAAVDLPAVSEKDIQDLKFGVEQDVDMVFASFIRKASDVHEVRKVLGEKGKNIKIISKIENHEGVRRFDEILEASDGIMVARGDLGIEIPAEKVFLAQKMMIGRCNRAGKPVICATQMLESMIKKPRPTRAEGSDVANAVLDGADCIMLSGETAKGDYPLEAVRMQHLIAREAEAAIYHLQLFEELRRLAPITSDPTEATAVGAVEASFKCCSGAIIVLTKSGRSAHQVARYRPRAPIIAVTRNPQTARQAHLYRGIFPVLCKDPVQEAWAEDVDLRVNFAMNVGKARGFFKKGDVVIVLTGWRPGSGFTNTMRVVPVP

stoichiometry N: 2
Substance: Pyruvate kinase M2 (PKM2), endogenous, P14618 1-531 (enzyme; other documents disagree on this pair)
